Measurements as given in patent publication US20190271710A1.

Experiments:
[1] = target: p217+ tau peptides (endogenous human tau protein or tau fragments phosphorylated at T217 and/or T212) (human) (UniProt P10636); test: Simoa sandwich ELISA, pT3 capture beads, pooled AD CSF diluted 1:2
[2] = target: p217+ tau peptides (endogenous human tau protein or tau fragments phosphorylated at T217 and/or T212) (human) (UniProt P10636); test: Simoa sandwich ELISA, pT3 capture beads, pooled AD CSF diluted 1:8
[3] = target: p217+ tau peptides (endogenous human tau protein or tau fragments phosphorylated at T217 and/or T212) (human) (UniProt P10636); test: Simoa sandwich ELISA, pT3 capture beads, pooled AD CSF diluted 1:32
[4] = target: p217+ tau peptides (endogenous human tau protein or tau fragments phosphorylated at T217 and/or T212) (human) (UniProt P10636); test: Simoa sandwich ELISA, pT3 capture beads, pooled AD CSF diluted 1:16
[5] = target: p217+ tau peptides (endogenous human tau protein or tau fragments phosphorylated at T217 and/or T212) (human) (UniProt P10636); test: Simoa sandwich ELISA, pT3 capture beads, pooled AD CSF diluted 1:64
[6] = target: p217+ tau peptides (endogenous human tau protein or tau fragments phosphorylated at T217 and/or T212) (human) (UniProt P10636); test: Simoa sandwich ELISA, pT3 capture beads, pooled AD CSF diluted 1:4

Chain of p217+ tau peptides (endogenous human tau protein or tau fragments phosphorylated at T217 and/or T212) (human) (P10636 other isoform, or with tags, fused parts or gaps limits assumed): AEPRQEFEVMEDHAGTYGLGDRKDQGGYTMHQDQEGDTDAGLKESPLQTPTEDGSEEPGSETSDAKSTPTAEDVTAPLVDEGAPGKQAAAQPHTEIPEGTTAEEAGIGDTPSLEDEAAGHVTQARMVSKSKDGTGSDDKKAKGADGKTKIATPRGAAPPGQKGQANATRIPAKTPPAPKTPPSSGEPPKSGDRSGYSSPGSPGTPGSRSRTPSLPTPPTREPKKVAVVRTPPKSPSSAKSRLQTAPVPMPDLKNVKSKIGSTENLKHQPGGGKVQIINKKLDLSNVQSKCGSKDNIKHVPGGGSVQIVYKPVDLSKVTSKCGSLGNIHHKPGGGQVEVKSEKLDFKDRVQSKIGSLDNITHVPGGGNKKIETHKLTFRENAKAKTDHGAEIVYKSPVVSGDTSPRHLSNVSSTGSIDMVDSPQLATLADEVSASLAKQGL

Substance: Quanterix tau 2.0 assay detector (antibody)
- S/N @ 1:2 dilution [1]: 525 S/N
- S/N @ 1:8 dilution [2]: 147 S/N
- S/N @ 1:32 dilution [3]: 35 S/N
- S/N @ 1:16 dilution [4]: 75 S/N
- S/N @ 1:64 dilution [5]: 19 S/N
- S/N @ 1:4 dilution [6]: 262 S/N
